Measurements reported in patent US20230382948A1, “DELIVERY OF ENDOTHELIAL CELL-LADEN MICROGEL ELICITS ANGIOGENESIS IN SELF-ASSEMBLING ULTRASHORT PEPTIDE HYDROGELS” (KING ABDULLAH UNIVERSITY OF SCIENCE AND TECHNOLOGY, priority 2020, published 2023).
Where no end group is shown, it is not given here. [ ]: non-standard residue; d: D form. Cha = N[C@@H](CC1CCCCC1)C(=O)O

Legend:
[1] = Peptide gelation study (vial inversion method); format: physicochemical; details: 1 mg/ml and 10 mg/ml, compared to IIZK and IZZK, FIG. 57
Method: The preweighed (as per the required final concentration) peptide powder was dissolved in 0.9 mL of Milli-Q® water in a glass vial. The solution was vortexed for 5-10 s to obtain a clear and homogeneous solution. To this peptide solution, 0.1 mL of PBS buffer (10×, w/o Ca^2+ and Mg^2+) was added. To ensure a homogeneous distribution of buffer in the solution, the glass vial was further vortexed for 2-3 s. The glass vial was kept undisturbed on the bench, and hydrogel formation was observed using the vial inversion method, as shown in FIG. 9. The pH of the solutions of IVFK (SEQ ID NO. 1) and IVZK (SEQ ID NO. 2) was 5.57 and 5.48 at a 5 mg/mL concentration, respectively. After the addition of PBS, the pH changed to 7.7 and 7.6 for IVFK (SEQ ID NO. 1) and IVZK (SEQ ID NO. 2), respectively. The pH of the Milli-Q® water and phosphate buffer used was 6.7 and 7.4, respectively.

[2] = Rheological characterization of SUP bulk hydrogels; format: physicochemical
Method: The mechanical stiffness of the peptide hydrogels was analyzed using a TA Ares-G2 Rheometer equipped with parallel-plate geometries of 8 mm diameter at room temperature. The sample gap between the upper and the lower geometries was set at 1.8 mm. The hydrogels were prepared from 135 μL of peptide solution that was mixed with 15 μL of 10×PBS in an 8 mm i.d. poly(methyl methacrylate) (PMMA) casting ring and left for 1 day before measurement. The rings were kept inside Petri dishes at room temperature with water surrounding them and tightly sealed to avoid dehydration. To control the accuracy of the measurements, six replicates for each peptide hydrogel were prepared. The stiffness was analyzed through three successive tests, which were time sweep, frequency sweep, and amplitude sweep. Time sweep was first performed for 5 min with an angular frequency and a strain of 1 rad/s and 0.1%, respectively. A frequency sweep was subsequently performed on the sample for a range of angular frequency of 0.1-100 rad/s with the same strain of 0.1%. The tests were completed with the amplitude sweep by applying a gradual increase of strain […] at 1 rad/s angular frequency.

| Substance | Self-assembly rate (time to form a gel) [1] | Loss modulus (G″) ([2]; 1 mg/mL) | Storage Modulus (G′, kPa) ([2]; 1 mg/mL) | tan δ (G″/G′) ([2]; 1 mg/mL) | Loss modulus (G″) ([2]; 2 mg/mL) | Storage Modulus (G′, kPa) ([2]; 2 mg/mL) | tan δ (G″/G′) ([2]; 2 mg/mL) | Loss modulus (G″) ([2]; 5 mg/mL) | Storage Modulus (G′, kPa) ([2]; 5 mg/mL) | tan δ (G″/G′) ([2]; 5 mg/mL) | Loss modulus (G″) ([2]; 8 mg/mL) | Storage Modulus (G′, kPa) ([2]; 8 mg/mL) | tan δ (G″/G′) ([2]; 8 mg/mL) | Loss modulus (G″) ([2]; 10 mg/mL) | Storage Modulus (G′, kPa) ([2]; 10 mg/mL) | tan δ (G″/G′) ([2]; 10 mg/mL) | Loss modulus (G″) ([2]; 13 mg/mL) | Storage Modulus (G′, kPa) ([2]; 13 mg/mL) | tan δ (G″/G′) ([2]; 13 mg/mL) |
| --- | --- | --- | --- | --- | --- | --- | --- | --- | --- | --- | --- | --- | --- | --- | --- | --- | --- | --- | --- |
| IIFK: self-assembling ultrashort tetrapeptide, one-letter sequence IIFK | slower than the Cha-containing peptides | 0.13 ± 0.04 kPa | 1.25 ± 0.86 kPa | 0.10 | 1.31 ± 0.12 kPa | 14.45 ± 1.37 kPa | 0.09 | 2.39 ± 0.11 kPa | 27.26 ± 1.30 kPa | 0.09 | 5.00 ± 0.31 kPa | 49.74 ± 5.02 kPa | 0.10 | 9.04 ± 0.56 kPa | 94.18 ± 7.12 kPa | 0.10 | 8.90 ± 0.36 kPa | 108.21 ± 5.02 kPa | 0.08 |
| IIZK: self-assembling ultrashort tetrapeptide, Cha-containing, one-letter sequence IIZK (II[Cha]K) |  | 0.88 ± 0.04 kPa | 6.52 ± 0.18 kPa | 0.13 | 2.02 ± 0.09 kPa | 16.82 ± 0.72 kPa | 0.12 | 7.08 ± 0.59 kPa | 64.74 ± 4.89 kPa | 0.11 | 10.91 ± 0.44 kPa | 89.40 ± 1.86 kPa | 0.12 | 15.54 ± 0.68 kPa | 134.04 ± 5.99 kPa | 0.12 | 37.76 ± 2.38 kPa | 271.34 ± 35.09 kPa | 0.14 |
